Assay [1] deals with Tenascin-C (TNC), recombinant full length. Nature of the assay: SPR (Biacore 2000), TNC immobilised on CM5 chip, 1:1 Langmuir model.
Assay [2] concerns the target Tenascin-C (TNC) expressed by the NT193M tumor cell (mouse) (UniProt Q80YX1). The experiment in a line: cell-based or functional assay.
The target in assay [3] is fibronectin type III domains 1-5 of human tenascin-C (human) (UniProt P24821). Nature of the assay: ELISA, TN1-5 coated, biotinylated FN12-14 titrated 1 nM to 1 µM.
Chain of fibronectin type III domains 1-5 of human tenascin-C (human) (P24821 625-1075, form in doubt): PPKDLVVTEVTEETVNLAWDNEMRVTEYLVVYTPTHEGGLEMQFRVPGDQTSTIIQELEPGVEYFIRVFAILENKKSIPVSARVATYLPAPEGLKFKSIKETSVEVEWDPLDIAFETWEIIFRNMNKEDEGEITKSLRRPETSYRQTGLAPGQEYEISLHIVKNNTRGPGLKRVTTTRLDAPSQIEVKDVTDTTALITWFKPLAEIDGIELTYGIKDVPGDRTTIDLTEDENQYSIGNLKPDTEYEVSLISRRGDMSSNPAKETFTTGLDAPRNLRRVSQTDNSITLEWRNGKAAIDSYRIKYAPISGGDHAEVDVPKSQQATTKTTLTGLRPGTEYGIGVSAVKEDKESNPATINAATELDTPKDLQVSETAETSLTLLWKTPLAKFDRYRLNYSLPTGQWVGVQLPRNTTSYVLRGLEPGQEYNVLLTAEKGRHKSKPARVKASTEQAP

Chain of Tenascin-C (TNC) expressed by the NT193M tumor cell (mouse) (Q80YX1 23-2110 limits assumed): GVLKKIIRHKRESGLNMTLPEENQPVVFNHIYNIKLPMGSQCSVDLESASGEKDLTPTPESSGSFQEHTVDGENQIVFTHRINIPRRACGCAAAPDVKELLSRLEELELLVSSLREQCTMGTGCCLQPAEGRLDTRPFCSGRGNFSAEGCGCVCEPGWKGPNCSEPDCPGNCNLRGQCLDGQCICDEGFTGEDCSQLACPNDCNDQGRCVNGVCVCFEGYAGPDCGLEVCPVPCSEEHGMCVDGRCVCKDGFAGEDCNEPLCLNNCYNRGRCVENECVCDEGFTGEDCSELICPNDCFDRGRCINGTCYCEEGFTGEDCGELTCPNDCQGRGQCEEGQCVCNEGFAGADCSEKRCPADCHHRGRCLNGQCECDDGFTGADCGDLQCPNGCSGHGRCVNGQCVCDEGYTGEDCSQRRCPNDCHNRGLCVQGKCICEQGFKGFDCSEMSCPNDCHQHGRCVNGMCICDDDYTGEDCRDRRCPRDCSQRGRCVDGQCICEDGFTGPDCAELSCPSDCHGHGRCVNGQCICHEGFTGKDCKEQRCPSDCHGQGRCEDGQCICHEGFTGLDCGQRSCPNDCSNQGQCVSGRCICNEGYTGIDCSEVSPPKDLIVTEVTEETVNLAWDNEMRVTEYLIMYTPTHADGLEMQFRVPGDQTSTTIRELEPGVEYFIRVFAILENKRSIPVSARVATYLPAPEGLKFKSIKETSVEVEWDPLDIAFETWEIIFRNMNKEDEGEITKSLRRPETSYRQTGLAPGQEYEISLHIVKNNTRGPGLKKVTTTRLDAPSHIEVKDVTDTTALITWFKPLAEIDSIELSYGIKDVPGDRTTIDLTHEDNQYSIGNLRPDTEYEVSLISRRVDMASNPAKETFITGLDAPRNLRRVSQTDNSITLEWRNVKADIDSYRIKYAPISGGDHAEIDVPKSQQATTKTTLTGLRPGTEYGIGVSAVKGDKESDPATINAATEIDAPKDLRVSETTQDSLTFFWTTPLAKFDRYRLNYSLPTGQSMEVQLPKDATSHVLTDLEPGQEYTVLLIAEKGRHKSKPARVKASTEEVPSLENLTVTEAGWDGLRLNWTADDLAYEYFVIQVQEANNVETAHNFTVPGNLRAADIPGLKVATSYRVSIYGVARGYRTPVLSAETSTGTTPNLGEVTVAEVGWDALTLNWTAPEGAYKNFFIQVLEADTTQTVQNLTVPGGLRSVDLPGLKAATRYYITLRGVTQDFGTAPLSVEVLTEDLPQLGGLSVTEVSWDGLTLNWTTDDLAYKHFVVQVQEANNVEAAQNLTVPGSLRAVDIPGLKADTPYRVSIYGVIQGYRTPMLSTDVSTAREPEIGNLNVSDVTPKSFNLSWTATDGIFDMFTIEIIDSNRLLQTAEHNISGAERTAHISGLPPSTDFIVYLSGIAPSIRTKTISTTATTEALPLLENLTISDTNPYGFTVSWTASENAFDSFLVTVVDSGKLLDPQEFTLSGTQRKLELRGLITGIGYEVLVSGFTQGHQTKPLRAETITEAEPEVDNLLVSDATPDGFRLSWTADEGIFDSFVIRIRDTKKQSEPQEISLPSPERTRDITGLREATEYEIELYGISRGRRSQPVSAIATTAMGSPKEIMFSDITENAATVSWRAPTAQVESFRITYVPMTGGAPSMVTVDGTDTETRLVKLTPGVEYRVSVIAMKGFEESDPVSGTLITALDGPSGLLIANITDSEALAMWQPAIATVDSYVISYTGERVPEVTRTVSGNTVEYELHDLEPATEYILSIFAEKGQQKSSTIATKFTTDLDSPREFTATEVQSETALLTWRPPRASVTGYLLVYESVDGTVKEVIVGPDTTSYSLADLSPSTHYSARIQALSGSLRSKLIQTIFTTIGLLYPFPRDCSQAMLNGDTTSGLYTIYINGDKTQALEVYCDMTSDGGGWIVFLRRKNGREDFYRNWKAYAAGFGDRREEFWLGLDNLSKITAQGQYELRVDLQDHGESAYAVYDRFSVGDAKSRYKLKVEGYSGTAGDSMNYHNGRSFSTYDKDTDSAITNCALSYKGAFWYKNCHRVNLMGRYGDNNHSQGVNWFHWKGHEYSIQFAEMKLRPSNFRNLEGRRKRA

Turning to “CCL21 (R&D Systems 457-6C) (from UniProt P84444 24-133) (ligand)”, in assay [1], the dissociation constant (Kd) came to 58 nM. Regarding “Mouse recombinant SU… (Enzo Lifesciences ALX-201-130-C020) (from UniProt P50592 99-291) (ligand)”, the TRAIL-induced killing of NT193M cells in assay [2] came out at 5%. Also, the Kd in assay [1] turned out to be 2.8 nM.

For “CXCL12 (R&D Systems 460-SD-050) (from UniProt P40224 22-89) (ligand)”, the Kd in assay [1] stood at 790 nM. “fibronectin type III domains 12-14 of human fibronectin (double Strep-tagged) (from UniProt P02751 1635-1908)” showed a Kd in assay [3] of 52 nM.

Usually Kd stands for the concentration at which binding is half-saturated.

These data come from EP3912994A1.
